Test results from publication PMC6599478 (Mucosal immunology, 2019).

Target: recombinant full length Tenascin-C, large isoform (TNC-L) (human, UniProt P24821 23-2201)
Experiment: ELISA

recombinant full length Tenascin-C, large isoform (TNC-L), sequence (P24821 23-2201): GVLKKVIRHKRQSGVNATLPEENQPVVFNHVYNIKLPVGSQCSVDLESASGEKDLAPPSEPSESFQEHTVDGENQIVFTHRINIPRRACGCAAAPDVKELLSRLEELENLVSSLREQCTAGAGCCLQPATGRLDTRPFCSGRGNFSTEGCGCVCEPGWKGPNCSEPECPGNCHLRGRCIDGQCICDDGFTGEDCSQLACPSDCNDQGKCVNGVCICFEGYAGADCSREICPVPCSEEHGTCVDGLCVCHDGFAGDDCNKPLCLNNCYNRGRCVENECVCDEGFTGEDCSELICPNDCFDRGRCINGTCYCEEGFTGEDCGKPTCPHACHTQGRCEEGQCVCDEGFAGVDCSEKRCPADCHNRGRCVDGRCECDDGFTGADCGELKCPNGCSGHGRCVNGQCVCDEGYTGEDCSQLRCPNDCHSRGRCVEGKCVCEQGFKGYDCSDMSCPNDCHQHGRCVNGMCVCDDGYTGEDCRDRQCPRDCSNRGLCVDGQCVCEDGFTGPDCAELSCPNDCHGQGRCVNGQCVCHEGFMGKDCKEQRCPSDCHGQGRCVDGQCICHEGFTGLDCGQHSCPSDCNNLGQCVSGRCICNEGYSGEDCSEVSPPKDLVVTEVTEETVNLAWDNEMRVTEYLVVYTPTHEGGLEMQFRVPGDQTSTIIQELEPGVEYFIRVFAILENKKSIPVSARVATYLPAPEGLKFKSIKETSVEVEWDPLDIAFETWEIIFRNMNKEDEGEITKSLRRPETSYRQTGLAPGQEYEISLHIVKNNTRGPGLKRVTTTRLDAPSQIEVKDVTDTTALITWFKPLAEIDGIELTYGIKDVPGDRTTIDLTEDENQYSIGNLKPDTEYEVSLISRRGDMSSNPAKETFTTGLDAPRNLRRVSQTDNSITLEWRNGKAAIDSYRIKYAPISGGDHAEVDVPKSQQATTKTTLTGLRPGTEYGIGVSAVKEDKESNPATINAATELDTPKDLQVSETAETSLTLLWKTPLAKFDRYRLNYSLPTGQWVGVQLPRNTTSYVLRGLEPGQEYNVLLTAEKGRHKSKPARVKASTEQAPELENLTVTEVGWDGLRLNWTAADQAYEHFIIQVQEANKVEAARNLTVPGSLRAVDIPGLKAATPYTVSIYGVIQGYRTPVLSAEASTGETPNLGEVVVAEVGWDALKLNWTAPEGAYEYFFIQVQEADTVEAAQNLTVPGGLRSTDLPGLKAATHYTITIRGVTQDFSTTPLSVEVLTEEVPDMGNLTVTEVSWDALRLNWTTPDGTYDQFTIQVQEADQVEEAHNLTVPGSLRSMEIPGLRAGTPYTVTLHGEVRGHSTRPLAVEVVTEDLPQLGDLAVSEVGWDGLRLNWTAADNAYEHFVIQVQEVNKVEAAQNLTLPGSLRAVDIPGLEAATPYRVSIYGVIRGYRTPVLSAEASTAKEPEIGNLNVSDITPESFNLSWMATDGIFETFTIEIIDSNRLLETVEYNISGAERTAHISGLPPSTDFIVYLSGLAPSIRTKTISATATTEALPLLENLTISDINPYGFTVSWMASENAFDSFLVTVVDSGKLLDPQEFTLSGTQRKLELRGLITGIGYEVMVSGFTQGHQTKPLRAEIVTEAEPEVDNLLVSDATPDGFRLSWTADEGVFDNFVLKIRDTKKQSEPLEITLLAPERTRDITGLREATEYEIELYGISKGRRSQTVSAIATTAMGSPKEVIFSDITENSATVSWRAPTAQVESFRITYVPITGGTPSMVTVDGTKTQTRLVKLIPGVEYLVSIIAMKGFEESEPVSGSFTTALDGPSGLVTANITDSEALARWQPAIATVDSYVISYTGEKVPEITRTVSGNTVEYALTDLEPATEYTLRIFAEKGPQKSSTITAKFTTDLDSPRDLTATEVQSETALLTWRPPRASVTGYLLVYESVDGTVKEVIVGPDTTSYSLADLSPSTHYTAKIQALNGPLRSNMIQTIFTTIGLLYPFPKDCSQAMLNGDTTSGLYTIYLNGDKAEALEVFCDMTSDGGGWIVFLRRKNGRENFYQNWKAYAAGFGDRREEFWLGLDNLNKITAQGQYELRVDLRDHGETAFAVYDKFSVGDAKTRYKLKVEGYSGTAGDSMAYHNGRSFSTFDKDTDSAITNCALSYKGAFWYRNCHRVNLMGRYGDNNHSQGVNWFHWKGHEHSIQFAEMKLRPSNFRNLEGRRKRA

Row | Binder | binding result
1 | TRPNYNKRKRIHIGPGRAFYTTKNIIGTIRQAH [MN V3 complete V3 loop peptide (33 amino acid linear peptide, wild type)] | binds
2 | TRPNYNKRKRIHIGPGRAFYTTKNIIGAARQAH [MNV3 326/327 Mutant peptide (T326A/I327A)] | binds
3 | TRPNYNKRKRIHIGPGRAFYTTAAIIGAARQAH [MNV3 Quad Mutant peptide (K321A/N322A/T326A/I327A)] | binds
4 | TRPNYNKRKRIHIGPGRAFYTTAAIIGTIRQAH [MNV3 321/322 Mutant peptide (K321A/N322A)] | binds
